Assays:
[1] = target: RhsA_(ΔTMD) (RhsA lacking its N-terminal prePAAR motif and TMD, residues 74-1486) (Pseudomonas protegens Pf-5); assay: cryo-EM structure; purified RhsA_(ΔTMD) at 4 mg/ml in 20 mM Tris-HCl pH 8.0, 150 mM NaCl; single particle analysis with C2 symmetry, 3.3 Å
[2] = target: VgrG1 from Pseudomonas protegens (Pseudomonas protegens Pf-5); assay: cryo-EM structure

stoichiometry N [2]	Substance	stoichiometry N [1]
–	RhsA_(ΔTMD) (RhsA lacking its N-terminal prePAAR motif and TMD, residues 74-1486) (domain or fragment)	2
3	VgrG1 from Pseudomonas protegens (natural protein)	–
